Laboratory results taken from the supplement of paper PMC10065799, “High-throughput profiling of sequence recognition by tyrosine kinases and SH2 domains using bacterial peptide display” (eLife, 2023).

What was measured:
AncSZ = experiment: phosphorylation enrichment, bacterial display (enrichment ratio); higher = better substrate or ligand; peptides without Tyr show the background
EPHB1 = EPHB1 (UniProt P54762); experiment: as above
EPHB2 = EPHB2 (UniProt P29323); experiment: as above
FGFR1 = FGFR1 (UniProt P11362); experiment: as above
FGFR1, sequence (P11362 whole entry, looked up): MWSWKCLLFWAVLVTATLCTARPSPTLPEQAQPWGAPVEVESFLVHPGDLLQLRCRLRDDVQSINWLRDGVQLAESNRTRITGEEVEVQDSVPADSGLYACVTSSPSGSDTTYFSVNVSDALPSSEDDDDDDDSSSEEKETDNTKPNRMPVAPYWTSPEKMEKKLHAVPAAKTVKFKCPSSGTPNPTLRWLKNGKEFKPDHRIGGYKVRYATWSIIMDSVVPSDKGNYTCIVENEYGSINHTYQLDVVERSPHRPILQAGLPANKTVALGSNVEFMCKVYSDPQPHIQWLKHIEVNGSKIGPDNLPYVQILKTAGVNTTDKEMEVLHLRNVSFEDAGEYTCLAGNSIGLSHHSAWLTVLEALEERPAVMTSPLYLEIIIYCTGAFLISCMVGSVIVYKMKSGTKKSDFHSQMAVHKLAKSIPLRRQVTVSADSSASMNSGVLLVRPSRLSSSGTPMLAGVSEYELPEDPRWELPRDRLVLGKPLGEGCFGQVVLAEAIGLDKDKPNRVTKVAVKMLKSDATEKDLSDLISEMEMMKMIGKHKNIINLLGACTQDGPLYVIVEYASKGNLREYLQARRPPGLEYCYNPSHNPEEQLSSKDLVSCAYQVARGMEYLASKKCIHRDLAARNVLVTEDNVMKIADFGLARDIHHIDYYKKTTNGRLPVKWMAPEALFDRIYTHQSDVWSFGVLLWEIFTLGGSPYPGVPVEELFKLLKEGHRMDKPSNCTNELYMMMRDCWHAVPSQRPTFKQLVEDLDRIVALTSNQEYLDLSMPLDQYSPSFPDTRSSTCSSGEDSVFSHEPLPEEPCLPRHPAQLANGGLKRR

FGFR3 = FGFR3 (UniProt P22607); experiment: as above
FGFR3, sequence (P22607 whole entry, looked up): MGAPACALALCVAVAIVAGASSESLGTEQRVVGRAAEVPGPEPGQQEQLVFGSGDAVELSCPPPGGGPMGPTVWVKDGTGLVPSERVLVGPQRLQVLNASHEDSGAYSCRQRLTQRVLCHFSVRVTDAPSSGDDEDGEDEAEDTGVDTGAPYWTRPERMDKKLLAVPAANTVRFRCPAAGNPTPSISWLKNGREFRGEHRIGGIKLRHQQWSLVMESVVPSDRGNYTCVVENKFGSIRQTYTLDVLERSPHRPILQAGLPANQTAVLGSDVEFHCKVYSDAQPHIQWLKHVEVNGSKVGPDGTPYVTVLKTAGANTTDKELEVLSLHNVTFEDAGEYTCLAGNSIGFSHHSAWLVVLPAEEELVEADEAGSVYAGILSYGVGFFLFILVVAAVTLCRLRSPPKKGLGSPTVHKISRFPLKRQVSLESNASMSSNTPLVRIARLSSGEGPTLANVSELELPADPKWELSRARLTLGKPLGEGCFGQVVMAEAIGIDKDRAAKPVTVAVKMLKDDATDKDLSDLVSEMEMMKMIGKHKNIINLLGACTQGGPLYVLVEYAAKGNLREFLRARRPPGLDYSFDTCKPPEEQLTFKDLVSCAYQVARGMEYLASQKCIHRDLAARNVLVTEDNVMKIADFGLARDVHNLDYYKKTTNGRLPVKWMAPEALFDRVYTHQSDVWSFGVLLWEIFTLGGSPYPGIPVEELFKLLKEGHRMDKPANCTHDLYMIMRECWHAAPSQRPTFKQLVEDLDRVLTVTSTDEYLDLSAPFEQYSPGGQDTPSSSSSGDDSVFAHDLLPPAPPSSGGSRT

Fer (mouse) = experiment: as above
Fes = Fes (UniProt P07332); experiment: as above
Fes, sequence (P07332 whole entry, looked up): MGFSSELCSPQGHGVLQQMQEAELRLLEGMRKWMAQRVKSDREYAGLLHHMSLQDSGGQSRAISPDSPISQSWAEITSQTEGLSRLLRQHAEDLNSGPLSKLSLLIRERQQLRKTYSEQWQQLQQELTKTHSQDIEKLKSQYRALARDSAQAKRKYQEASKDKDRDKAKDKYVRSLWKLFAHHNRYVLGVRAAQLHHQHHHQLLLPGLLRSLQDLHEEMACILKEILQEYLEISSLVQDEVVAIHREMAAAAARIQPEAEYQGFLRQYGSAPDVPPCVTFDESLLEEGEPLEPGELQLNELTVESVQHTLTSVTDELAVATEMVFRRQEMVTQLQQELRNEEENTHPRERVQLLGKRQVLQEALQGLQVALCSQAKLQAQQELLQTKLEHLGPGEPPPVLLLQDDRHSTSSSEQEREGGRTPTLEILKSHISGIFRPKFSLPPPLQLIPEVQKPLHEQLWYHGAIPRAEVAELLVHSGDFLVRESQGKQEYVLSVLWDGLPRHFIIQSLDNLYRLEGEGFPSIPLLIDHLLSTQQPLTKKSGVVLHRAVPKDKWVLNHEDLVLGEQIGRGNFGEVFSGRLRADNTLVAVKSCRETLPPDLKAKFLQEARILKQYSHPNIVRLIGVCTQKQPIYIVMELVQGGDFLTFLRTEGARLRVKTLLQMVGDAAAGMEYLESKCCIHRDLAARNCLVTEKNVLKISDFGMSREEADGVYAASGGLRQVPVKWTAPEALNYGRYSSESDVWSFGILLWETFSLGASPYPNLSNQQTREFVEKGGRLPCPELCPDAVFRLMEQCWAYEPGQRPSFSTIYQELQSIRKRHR

Fyn = Fyn (UniProt P06241); experiment: as above
Fyn, sequence (P06241 whole entry, looked up): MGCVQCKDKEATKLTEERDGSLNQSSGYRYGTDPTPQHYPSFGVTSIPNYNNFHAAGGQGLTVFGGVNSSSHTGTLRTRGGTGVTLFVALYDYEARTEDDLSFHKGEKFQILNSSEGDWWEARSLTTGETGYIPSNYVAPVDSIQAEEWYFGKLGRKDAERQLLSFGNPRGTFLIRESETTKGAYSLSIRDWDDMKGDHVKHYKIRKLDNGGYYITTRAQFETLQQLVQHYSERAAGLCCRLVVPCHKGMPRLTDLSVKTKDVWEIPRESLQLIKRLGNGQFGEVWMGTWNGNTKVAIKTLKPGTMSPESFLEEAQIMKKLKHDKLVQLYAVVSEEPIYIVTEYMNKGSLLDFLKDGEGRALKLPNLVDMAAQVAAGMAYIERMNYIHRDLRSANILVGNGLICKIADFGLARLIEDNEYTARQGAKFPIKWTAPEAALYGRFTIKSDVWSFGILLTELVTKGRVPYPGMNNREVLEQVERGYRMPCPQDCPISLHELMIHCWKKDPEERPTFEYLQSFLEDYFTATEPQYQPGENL

Hck = Hck (UniProt P08631); experiment: as above
Hck, sequence (P08631 whole entry, looked up): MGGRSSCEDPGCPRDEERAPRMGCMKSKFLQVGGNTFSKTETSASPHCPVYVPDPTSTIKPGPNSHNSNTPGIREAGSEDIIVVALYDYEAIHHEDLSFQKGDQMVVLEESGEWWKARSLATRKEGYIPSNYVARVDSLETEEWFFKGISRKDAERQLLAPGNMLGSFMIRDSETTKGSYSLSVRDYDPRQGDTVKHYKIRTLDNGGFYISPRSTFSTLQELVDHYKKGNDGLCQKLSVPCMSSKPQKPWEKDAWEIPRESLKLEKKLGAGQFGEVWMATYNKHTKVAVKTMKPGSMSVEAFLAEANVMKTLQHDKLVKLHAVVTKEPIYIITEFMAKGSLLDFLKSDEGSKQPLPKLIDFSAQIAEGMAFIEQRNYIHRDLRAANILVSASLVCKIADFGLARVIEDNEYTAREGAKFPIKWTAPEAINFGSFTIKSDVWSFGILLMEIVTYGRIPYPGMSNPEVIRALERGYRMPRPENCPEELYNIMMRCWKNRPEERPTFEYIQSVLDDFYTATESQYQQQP

Jak2 = Jak2 (UniProt O60674); experiment: as above
MERTK = MERTK (UniProt Q12866); experiment: as above
MERTK, sequence (Q12866 whole entry, looked up): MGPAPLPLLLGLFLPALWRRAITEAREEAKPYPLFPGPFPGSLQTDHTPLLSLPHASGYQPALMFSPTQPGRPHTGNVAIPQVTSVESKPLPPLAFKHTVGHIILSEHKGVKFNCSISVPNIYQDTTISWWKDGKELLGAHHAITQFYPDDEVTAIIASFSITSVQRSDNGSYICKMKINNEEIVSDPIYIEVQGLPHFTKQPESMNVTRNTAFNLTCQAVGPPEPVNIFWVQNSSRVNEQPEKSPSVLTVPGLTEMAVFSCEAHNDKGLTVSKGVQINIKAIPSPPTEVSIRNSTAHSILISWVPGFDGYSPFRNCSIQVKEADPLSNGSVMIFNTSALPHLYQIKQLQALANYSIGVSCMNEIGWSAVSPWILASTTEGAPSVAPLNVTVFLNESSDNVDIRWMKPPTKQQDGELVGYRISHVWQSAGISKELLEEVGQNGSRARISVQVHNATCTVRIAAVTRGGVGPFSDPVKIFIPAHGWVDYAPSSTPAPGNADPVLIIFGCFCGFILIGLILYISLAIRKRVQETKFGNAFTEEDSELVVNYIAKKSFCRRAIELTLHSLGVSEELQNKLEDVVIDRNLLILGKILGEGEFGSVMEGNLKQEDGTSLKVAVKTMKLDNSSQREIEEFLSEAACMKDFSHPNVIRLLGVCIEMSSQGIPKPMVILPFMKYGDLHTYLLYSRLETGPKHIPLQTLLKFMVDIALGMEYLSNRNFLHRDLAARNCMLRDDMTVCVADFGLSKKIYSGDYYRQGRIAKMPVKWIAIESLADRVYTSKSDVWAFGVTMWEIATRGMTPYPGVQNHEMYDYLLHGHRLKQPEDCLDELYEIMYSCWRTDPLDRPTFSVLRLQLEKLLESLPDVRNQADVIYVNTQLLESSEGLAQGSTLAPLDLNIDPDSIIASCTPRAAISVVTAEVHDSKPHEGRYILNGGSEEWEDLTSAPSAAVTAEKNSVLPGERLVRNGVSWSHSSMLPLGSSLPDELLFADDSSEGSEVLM

c-Abl (mouse) = experiment: as above
c-Src = experiment: as above
Grb2 SH2 = Grb2 SH2 (UniProt P62993); experiment: SH2 binding enrichment of the phosphorylated peptide, bacterial display (enrichment ratio); higher = better substrate or ligand; peptides without Tyr show the background
Grb2 SH2, sequence (P62993 whole entry, looked up): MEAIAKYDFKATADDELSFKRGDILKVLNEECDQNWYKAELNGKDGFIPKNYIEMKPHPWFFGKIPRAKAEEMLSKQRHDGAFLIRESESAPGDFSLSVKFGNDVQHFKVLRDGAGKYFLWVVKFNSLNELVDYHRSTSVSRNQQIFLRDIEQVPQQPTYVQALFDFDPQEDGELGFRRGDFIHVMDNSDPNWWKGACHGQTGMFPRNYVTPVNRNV

SHP2-C SH2 = experiment: as above
c-Src SH2 = experiment: as above
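For SH2 binding enrichment of the phosphorylated peptide, bacterial display in this document: peptide library displayed on the E. coli surface as eCPX fusions, selected cells deep-sequenced, score is each peptide's frequency after selection divided by its frequency in the input.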
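For phosphorylation enrichment, bacterial display in this document: 11-residue human phosphosite peptides and single-mutation variants displayed on the E. coli surface, counted by deep sequencing, each peptide's frequency after selection divided by its frequency in the unselected input library; frequency after pTyr selection over input frequency; kinase dosed for 20-30% of maximal phosphorylation in three min.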

Sequence | phosphorylation enrichment (AncSZ) | phosphorylation enrichment (EPHB1) | phosphorylation enrichment (EPHB2) | phosphorylation enrichment (FGFR1) | phosphorylation enrichment (FGFR3) | phosphorylation enrichment (Fer (mouse)) | phosphorylation enrichment (Fes) | phosphorylation enrichment (Fyn) | phosphorylation enrichment (Hck) | phosphorylation enrichment (Jak2) | phosphorylation enrichment (MERTK) | phosphorylation enrichment (c-Abl (mouse)) | phosphorylation enrichment (c-Src) | SH2 binding enrichment (Grb2 SH2) | SH2 binding enrichment (SHP2-C SH2) | SH2 binding enrichment (c-Src SH2)
EYITRYIDSLK [PSMA7_Y110_A112D] | 0.829 | 0.396 | 0.552 | 0.528 | 0.572 | 0.461 | 0.832 | 0.504 | 0.558 | 0.677 | 0.395 | 0.498 | 0.479 | 0.814 | 1.1 | 0.588
EYLQKYKGFKI [SYNE1_Y6953] | 0.733 | 0.427 | 0.332 | 0.256 | 0.377 | 0.407 | 0.868 | 0.275 | 0.345 | 0.707 | 0.438 | 0.569 | 0.323 | 0.854 | 0.624 | 0.551
FADIAYNFRQG [PAH_Y166_H170Q_YF] | 0.772 | 0.47 | 0.486 | 0.398 | 0.601 | 0.35 | 0.86 | 0.425 | 0.505 | 0.701 | 0.41 | 0.665 | 0.5 | 0.77 | 0.694 | 0.443
FAKSVYWENTL [NUP107_Y296_YF] | 0.899 | 0.554 | 0.531 | 0.506 | 0.752 | 0.418 | 1.32 | 0.768 | 0.857 | 0.987 | 0.588 | 0.638 | 0.802 | 1.08 | 0.887 | 1.15
FASTGYVIAIQ [GRIN2B_Y762_G763V] | 1.32 | 0.618 | 0.587 | 0.484 | 0.724 | 0.543 | 0.983 | 0.474 | 0.418 | 0.941 | 0.393 | 0.784 | 0.4 | 0.94 | 1.07 | 0.742
FCGFSYDDIPD [TMEM230_Y112_R108C_YF] | 1.46 | 0.694 | 0.707 | 0.592 | 0.918 | 0.76 | 1.27 | 0.481 | 0.63 | 1.22 | 0.558 | 1.02 | 0.537 | 1.11 | 0.674 | 10.3
FDDDDYDTDFV [BLM_Y296] | 1.26 | 0.662 | 0.549 | 0.586 | 0.78 | 0.531 | 1.14 | 0.563 | 0.538 | 0.958 | 0.509 | 0.767 | 0.494 | 0.803 | 0.702 | 0.555
FDDIACIRKTL [PIK3CA_Y1021_Y1021C] | 0.911 | 0.603 | 0.629 | 0.497 | 0.756 | 0.424 | 1.03 | 0.374 | 0.448 | 0.787 | 0.386 | 0.661 | 0.378 | 0.668 | 0.471 | 0.51
FDDIAYIRKNL [PIK3CA_Y1021_T1025N] | 0.864 | 0.409 | 0.506 | 0.432 | 0.56 | 0.361 | 0.852 | 0.403 | 0.5 | 0.494 | 0.416 | 0.483 | 0.379 | 0.768 | 0.759 | 0.556
FDNSVYQKTTE [LDLR_Y828_P826S] | 0.924 | 0.487 | 0.488 | 0.51 | 0.641 | 0.374 | 0.913 | 0.515 | 0.668 | 0.673 | 0.432 | 0.701 | 0.657 | 0.808 | 0.559 | 0.768
FEGHSYSACTT [MMP9_Y241_R239H] | 0.95 | 0.617 | 0.524 | 0.533 | 0.656 | 0.644 | 1.1 | 0.512 | 0.486 | 1.03 | 0.562 | 1.34 | 0.59 | 0.869 | 0.642 | 2.25
FESPRYLQVHI [FANCA_Y488] | 0.928 | 0.782 | 0.461 | 0.534 | 0.61 | 0.676 | 1.04 | 0.408 | 0.564 | 0.867 | 0.495 | 0.949 | 0.411 | 0.912 | 0.781 | 0.648
FETSHYLASPD [CTNND2_Y1217_P1218L_YF] | 0.791 | 0.878 | 0.635 | 0.568 | 0.752 | 0.502 | 0.824 | 0.557 | 0.513 | 0.73 | 0.664 | 0.658 | 0.523 | 0.923 | 0.904 | 0.473
FGYPGYQSKHY [TIMP3_Y177] | 0.592 | 0.512 | 0.465 | 0.349 | 0.546 | 0.443 | 0.8 | 0.516 | 0.414 | 0.607 | 0.435 | 0.496 | 0.534 | 0.895 | 0.751 | 0.511
FHNSEYGELSE [FLT4_Y1337_Y1333H] | 1.18 | 0.613 | 0.504 | 0.569 | 0.738 | 0.473 | 1.23 | 1.1 | 0.724 | 1.05 | 0.352 | 0.806 | 0.849 | 0.893 | 0.992 | 0.452
FHRQLYHKCTH [F12_Y58_YF] | 0.601 | 0.855 | 0.495 | 0.387 | 0.442 | 0.398 | 0.76 | 0.371 | 0.425 | 0.623 | 0.385 | 0.502 | 0.375 | 1.03 | 0.933 | 0.916
FIGVTYKNEED [PDGFRA_Y993_YF] | 1.02 | 0.565 | 0.484 | 0.584 | 0.629 | 0.49 | 1.11 | 0.432 | 0.451 | 0.92 | 0.336 | 0.649 | 0.491 | 1.31 | 0.571 | 0.555

Sequence | phosphorylation enrichment (AncSZ) | phosphorylation enrichment (EPHB1) | phosphorylation enrichment (EPHB2) | phosphorylation enrichment (FGFR1) | phosphorylation enrichment (FGFR3) | phosphorylation enrichment (Fer (mouse)) | phosphorylation enrichment (Fes) | phosphorylation enrichment (Fyn) | phosphorylation enrichment (Hck) | phosphorylation enrichment (Jak2) | phosphorylation enrichment (MERTK) | phosphorylation enrichment (c-Abl (mouse)) | phosphorylation enrichment (c-Src) | SH2 binding enrichment (Grb2 SH2) | SH2 binding enrichment (SHP2-C SH2) | SH2 binding enrichment (c-Src SH2)
FISLIYTNFEA [GSTP1_Y109_YF] | 1.56 | 1.11 | 0.793 | 0.683 | 1.12 | 2 | 1.55 | 4.29 | 2.56 | 1.3 | 3.6 | 2.21 | 4.67 | 1.1 | 0.872 | 0.524
FKEIVYAVSSD [DCX_Y70_G67E] | 1.32 | 0.455 | 0.644 | 0.723 | 0.809 | 0.587 | 1.4 | 3.23 | 2.25 | 0.921 | 1.93 | 13.7 | 3.74 | 0.913 | 0.656 | 0.742
FLAVEYHKPHI [IDS_Y225_G224E] | 0.779 | 0.417 | 0.459 | 0.393 | 0.515 | 0.354 | 0.814 | 0.337 | 0.38 | 1.05 | 0.302 | 1.6 | 0.387 | 1.32 | 0.653 | 0.925
FLLTVYSIFSK [SGCE_Y38] | 1.15 | 0.643 | 0.589 | 0.496 | 0.647 | 0.594 | 1.05 | 2.59 | 2.3 | 1.1 | 1.17 | 0.899 | 3.17 | 2.05 | 1.93 | 1.38
FLRKEYGGLNV [CBR3_Y81] | 0.584 | 0.4 | 0.519 | 0.393 | 0.437 | 0.375 | 0.618 | 0.45 | 0.404 | 0.615 | 0.385 | 0.412 | 0.334 | 0.667 | 0.432 | 0.435
FPILNYKDIRK [CFAP221_Y798_M795I] | 0.546 | 0.478 | 0.487 | 0.431 | 0.464 | 0.449 | 0.666 | 0.368 | 0.391 | 0.745 | 0.453 | 0.486 | 0.49 | 0.76 | 0.696 | 0.447
FPLAEYTEVKT [ALDH1A3_Y497_A493P_YF] | 1.34 | 0.685 | 0.575 | 0.671 | 0.82 | 0.516 | 0.968 | 0.502 | 0.54 | 1.01 | 0.4 | 0.709 | 0.528 | 0.884 | 0.841 | 1.87
FPRAWYRRSIA [KIAA1109_Y4272] | 0.693 | 0.394 | 0.468 | 0.394 | 0.381 | 0.473 | 0.55 | 0.405 | 0.413 | 0.689 | 0.473 | 0.552 | 0.477 | 0.801 | 0.339 | 0.462
FPSLPYSPVSS [CAMKK2_Y128_C123Y_YF] | 0.789 | 0.452 | 0.445 | 0.539 | 0.592 | 2.1 | 0.707 | 0.479 | 0.59 | 0.526 | 0.489 | 0.507 | 0.457 | 0.857 | 0.863 | 0.672
FQKDVYNIPPS [NEDD9_Y177_D178N_YF] | 0.613 | 0.437 | 0.411 | 0.47 | 0.468 | 0.371 | 0.572 | 2.54 | 1.31 | 1.75 | 0.883 | 0.525 | 2.21 | 1 | 0.913 | 0.479
FQKNSYSEELR [LMNA_Y211_I210S] | 0.626 | 0.363 | 0.342 | 0.401 | 0.499 | 0.365 | 0.686 | 0.456 | 0.319 | 0.63 | 0.425 | 0.544 | 0.452 | 0.847 | 0.643 | 0.413
FQLPFYNMVPS [BMPR1A_Y458_YF] | 0.788 | 0.65 | 0.773 | 1.21 | 0.936 | 1.45 | 0.811 | 1.05 | 1.07 | 0.666 | 2.69 | 0.582 | 1.06 | 0.952 | 0.652 | 1.97
FQRLRYIKQLG [SAMHD1_Y146] | 0.8 | 0.483 | 0.592 | 0.42 | 0.509 | 0.42 | 0.898 | 0.399 | 0.454 | 0.652 | 0.472 | 0.617 | 0.473 | 0.813 | 0.679 | 0.479
FRGFSYDDIPD [TMEM230_Y112_YF] | 1.35 | 0.739 | 0.71 | 0.474 | 0.737 | 0.405 | 1.44 | 0.438 | 0.609 | 1.39 | 0.565 | 0.895 | 0.485 | 0.882 | 0.595 | 7.24
FRNSLYAPDFS [FAM92A_Y226_YF] | 0.755 | 2.04 | 1.35 | 0.891 | 0.743 | 0.911 | 0.899 | 1.02 | 1.23 | 0.812 | 8.67 | 0.563 | 1.25 | 0.674 | 0.736 | 0.511
FRPPFYHRDCM [HGD_Y334_N337D_YF] | 0.895 | 0.611 | 0.659 | 0.558 | 0.724 | 0.577 | 1.1 | 0.459 | 0.507 | 0.942 | 0.471 | 0.735 | 0.477 | 1.03 | 1.06 | 1.02
